What was measured:
Test in all cases: co-IP, anti-FLAG, lysate of cells with C-FLAG B3GNT2; mass spectrometry
LMNA = target: T1, LMNA (human, UniProt P02545 1-646, limits assumed)
T1 construct: also called NP_733821.1
T1 sequence (looked up): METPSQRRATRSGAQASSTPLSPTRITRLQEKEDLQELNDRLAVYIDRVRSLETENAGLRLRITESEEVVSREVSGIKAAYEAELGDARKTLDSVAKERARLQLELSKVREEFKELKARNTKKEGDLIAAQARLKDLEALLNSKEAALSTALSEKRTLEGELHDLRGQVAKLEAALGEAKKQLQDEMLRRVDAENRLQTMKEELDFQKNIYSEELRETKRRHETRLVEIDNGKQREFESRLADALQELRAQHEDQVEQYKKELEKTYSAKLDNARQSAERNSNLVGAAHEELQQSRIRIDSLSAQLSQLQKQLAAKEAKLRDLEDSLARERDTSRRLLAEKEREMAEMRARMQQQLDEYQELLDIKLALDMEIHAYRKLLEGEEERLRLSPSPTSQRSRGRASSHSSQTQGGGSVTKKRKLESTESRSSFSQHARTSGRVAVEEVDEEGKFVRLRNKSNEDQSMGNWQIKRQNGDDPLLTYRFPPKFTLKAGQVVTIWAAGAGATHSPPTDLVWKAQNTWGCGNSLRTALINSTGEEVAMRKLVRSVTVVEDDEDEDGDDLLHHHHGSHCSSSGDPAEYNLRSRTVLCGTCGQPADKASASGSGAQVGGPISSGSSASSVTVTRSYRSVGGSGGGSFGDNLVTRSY
Description: (§1) Cells were plated in 10-cm cell culture dishes and grown to 60-80% confluency. For each condition, two biological replicates were harvested for co-IP. Cells were washed with PBS and 4 mL of lysis buffer (20 mM HEPES, 1% Triton X-100, 150 mM NaCl, 1 mM EDTA, and 10% glycerol) containing protease inhibitor cocktail was added. Cells were scraped and lysate was incubated at 4° C. under rotary agitation for 1 h. Lysate was centrifuged at 14,000×g for 10 min at 4° C. Supernatant was transferred to a new tube and an aliquot was taken as the input. […] For Western blots, 10 μg/mL Chicken Anti-FLAG (Aves labs ET-DY100) and IgY control (R&D Systems AB-101-C) antibodies were biotinylated (Thermo Fisher Scientific 90407) and added to the respective conditions. Lysates with antibodies were incubated at 4° C. under rotary agitation overnight. For each mL of lysate, 50 μL of Pierce Protein A/G Magnetic Beads (Mass spectrometry; Thermo Fisher Scientific 88803) or Pierce Streptavidin Magnetic Beads (Western blot; Thermo Fisher Scientific 88817) was washed twice with lysis buffer. Lysates with antibodies were added to the beads and incubated at 4° C. under rotary agitation for 4 h. Beads were washed with lysis buffer 3 times and resuspended in lysis buffer for storage.
(§2) Magnetic beads were resuspended in 100 mM Tris pH 7.8, reduced, alkylated and digested with trypsin at 37° ° C. overnight. This solution was subjected to solid phase extraction to concentrate the peptides and remove unwanted reagents followed by injection onto a Shimadzu HPLC with fraction collector. Eight fractions were collected and after concentration were injected on a Waters NanoAcquity HPLC equipped with a self-packed Aeris 3 μm C18 analytical column 0.075 mm by 20 cm, (Phenomenex). Peptides were eluted using standard reverse-phase gradients. The effluent from the column was analyzed using a Thermo Orbitrap Elite mass spectrometer (nanospray configuration) operated in a data dependent manner for 54 minutes. The resulting fragmentation spectra were correlated against the known database using Proteome Discover 1.4 (Thermo Fisher Scientific).

FUBP3 = target: T2, FUBP3 (human, UniProt Q96I24 2-572)
T2 construct: also called NP_003925.1 (+2)
T2 sequence (looked up): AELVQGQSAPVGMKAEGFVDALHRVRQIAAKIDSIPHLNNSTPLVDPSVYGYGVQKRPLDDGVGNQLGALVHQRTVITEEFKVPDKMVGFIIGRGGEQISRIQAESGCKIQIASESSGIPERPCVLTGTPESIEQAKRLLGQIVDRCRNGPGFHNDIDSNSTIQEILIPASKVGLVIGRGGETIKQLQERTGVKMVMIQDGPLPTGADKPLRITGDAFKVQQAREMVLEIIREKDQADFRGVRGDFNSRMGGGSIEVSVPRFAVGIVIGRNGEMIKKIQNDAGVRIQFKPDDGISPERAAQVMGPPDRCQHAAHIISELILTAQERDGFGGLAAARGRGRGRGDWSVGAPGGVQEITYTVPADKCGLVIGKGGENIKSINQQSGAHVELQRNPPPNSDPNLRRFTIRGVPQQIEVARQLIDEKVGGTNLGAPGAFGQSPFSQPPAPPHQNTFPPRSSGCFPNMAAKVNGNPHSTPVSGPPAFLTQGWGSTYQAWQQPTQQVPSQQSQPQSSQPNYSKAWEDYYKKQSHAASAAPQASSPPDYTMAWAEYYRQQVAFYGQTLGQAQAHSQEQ
Description: as §1, §2

DDX5 = target: T3, DDX5 (human, UniProt P17844 1-614)
T3 construct: also called NP_001307526.1
T3 sequence (P17844 whole entry): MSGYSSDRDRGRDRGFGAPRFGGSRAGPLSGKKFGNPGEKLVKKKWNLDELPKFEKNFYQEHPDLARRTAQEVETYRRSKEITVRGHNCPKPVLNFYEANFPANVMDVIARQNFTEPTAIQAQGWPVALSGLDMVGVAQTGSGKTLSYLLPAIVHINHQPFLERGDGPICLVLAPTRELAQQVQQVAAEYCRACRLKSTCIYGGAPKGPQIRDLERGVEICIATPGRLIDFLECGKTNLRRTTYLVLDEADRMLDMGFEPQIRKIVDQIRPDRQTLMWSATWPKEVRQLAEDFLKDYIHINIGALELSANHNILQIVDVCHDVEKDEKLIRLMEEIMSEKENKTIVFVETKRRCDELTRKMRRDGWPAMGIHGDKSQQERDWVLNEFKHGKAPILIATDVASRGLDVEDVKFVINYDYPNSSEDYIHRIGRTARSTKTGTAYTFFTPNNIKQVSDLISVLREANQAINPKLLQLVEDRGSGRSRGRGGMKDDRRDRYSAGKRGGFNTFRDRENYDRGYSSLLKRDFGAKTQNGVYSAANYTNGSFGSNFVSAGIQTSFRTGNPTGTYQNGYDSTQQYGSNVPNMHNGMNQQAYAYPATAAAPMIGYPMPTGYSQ
Description: as §1, §2

RPS3 = RPS3 (human, UniProt P23396 2-243)
Description: as §1, §2

KRT6B = target: T4, KRT6B (human, UniProt P04259 2-564)
T4 construct: also called NP_00546.2
T4 sequence (looked up): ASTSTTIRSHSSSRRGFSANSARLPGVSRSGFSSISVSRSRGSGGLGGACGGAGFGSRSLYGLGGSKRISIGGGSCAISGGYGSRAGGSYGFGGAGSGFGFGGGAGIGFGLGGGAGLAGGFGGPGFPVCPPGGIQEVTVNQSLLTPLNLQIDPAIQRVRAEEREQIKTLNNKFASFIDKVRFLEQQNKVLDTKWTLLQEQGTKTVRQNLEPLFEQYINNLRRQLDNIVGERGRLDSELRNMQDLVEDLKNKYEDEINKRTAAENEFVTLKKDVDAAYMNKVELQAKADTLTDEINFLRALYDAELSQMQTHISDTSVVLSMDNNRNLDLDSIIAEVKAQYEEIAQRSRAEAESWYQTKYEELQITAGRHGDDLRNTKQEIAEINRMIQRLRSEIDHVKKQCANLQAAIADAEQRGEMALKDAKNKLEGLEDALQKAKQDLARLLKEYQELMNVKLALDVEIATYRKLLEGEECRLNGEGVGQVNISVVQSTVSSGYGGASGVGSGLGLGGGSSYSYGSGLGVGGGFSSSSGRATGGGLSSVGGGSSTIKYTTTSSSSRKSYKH
Description: as §1, §2

B1: C-terminal FLAG tagged B3GNT2 (enzyme, human, UniProt Q9NY97 1-397, looked up)
chain: MSVGRRRIKLLGILMMANVFIYFIMEVSKSSSQEKNGKGEVIIPKEKFWKISTPPEAYWNREQEKLNRQYNPILSMLTNQTGEAGRLSNISHLNYCEPDLRVTSVVTGFNNLPDRFKDFLLYLRCRNYSLLIDQPDKCAKKPFLLLAIKSLTPHFARRQAIRESWGQESNAGNQTVVRVFLLGQTPPEDNHPDLSDMLKFESEKHQDILMWNYRDTFFNLSLKEVLFLRWVSTSCPDTEFVFKGDDDVFVNTHHILNYLNSLSKTKAKDLFIGDVIHNAGPHRDKKLKYYIPEVVYSGLYPPYAGGGGFLYSGHLALRLYHITDQVHLYPIDDVYTGMCLQKLGLVPEKHKGFRTFDIEEKNKNNICSYVDLMLVHSRKPQEMIDIWSQLQSAHLKC
notes: Overexpressed in cells and pulled down from the lysate with mouse anti-FLAG antibody; also called C-FLAG B3GNT2; C-term flag; not shown: C-terminal FLAG tag
With B1 the “co-IP mass spectrometry count” value (LMNA) was 22, the “co-IP mass spectrometry count” value (FUBP3) was 9 and the “co-IP mass spectrometry count” value (DDX5) was 22. The “co-IP mass spectrometry count” value (RPS3) was 23 and the “co-IP mass spectrometry count” value (KRT6B) was 331.
